Measurements taken from US20220062341A1 (KIRIN, published 2022).

B1: modified TCR consisting of β10 and α10 (TCR)
TCR alpha: IPEDTFFPSPESSCDVKLVEKSFETDTNLNFQNLSVIGFRILLLKVAGFNLLMTLRLWSS
TCR beta: YGLSENDEWTQDRAKPVTQIVSAEAWGRADCGFTSESYQQGVLSATILYEILLGKATLYAVLVSALVLMAMVKRKDSRG
B2: modified TCR consisting of β9 and α10 (TCR)
TCR alpha: B1 TCR alpha
TCR beta: FRCQVQFYGLSENDEWTQDRAKPVTQIVSAEAWGRADCGFTSESYQQGVLSATILYEILLGKATLYAVLVSALVLMAMVKRKDSRG
B3: modified TCR consisting of β11 and α10 (TCR)
TCR alpha: B1 TCR alpha
TCR beta: EWTQDRAKPVTQIVSAEAWGRADCGFTSESYQQGVLSATILYEILLGKATLYAVLVSALVLMAMVKRKDSRG
B4: modified TCR consisting of β12 and α10 (TCR)
TCR alpha: B1 TCR alpha
TCR beta: AKPVTQIVSAEAWGRADCGFTSESYQQGVLSATILYEILLGKATLYAVLVSALVLMAMVKRKDSRG
B5: modified TCR consisting of β12 and α5 (TCR)
TCR alpha: LDMRSMDFKSNSAVAWSNKSDFACANAFNNSIIPEDTFFPSPESSCDVKLVEKSFETDTNLNFQNLSVIGFRILLLKVAGFNLLMTLRLWSS
TCR beta: B4 TCR beta
B6: modified TCR consisting of β12 and α7 (TCR)
TCR alpha: SNKSDFACANAFNNSIIPEDTFFPSPESSCDVKLVEKSFETDTNLNFQNLSVIGFRILLLKVAGFNLLMTLRLWSS
TCR beta: B4 TCR beta
B7: modified TCR consisting of β12 and α9 (TCR)
TCR alpha: FNNSIIPEDTFFPSPESSCDVKLVEKSFETDTNLNFQNLSVIGFRILLLKVAGFNLLMTLRLWSS
TCR beta: B4 TCR beta
B8: modified TCR consisting of β12 and α6 (TCR)
TCR alpha: KSNSAVAWSNKSDFACANAFNNSIIPEDTFFPSPESSCDVKLVEKSFETDTNLNFQNLSVIGFRILLLKVAGFNLLMTLRLWSS
TCR beta: B4 TCR beta
B9: modified TCR consisting of β9 and α8 (TCR)
TCR alpha: CANAFNNSIIPEDTFFPSPESSCDVKLVEKSFETDTNLNFQNLSVIGFRILLLKVAGFNLLMTLRLWSS
TCR beta: B2 TCR beta
B10: modified TCR consisting of β9 and α9 (TCR)
TCR alpha: B7 TCR alpha
TCR beta: B2 TCR beta
B11: modified TCR consisting of β12 and α8 (TCR)
TCR alpha: B9 TCR alpha
TCR beta: B4 TCR beta
B12: modified TCR consisting of β11 and α8 (TCR)
TCR alpha: B9 TCR alpha
TCR beta: B3 TCR beta
B13: modified TCR consisting of β10 and α8 (TCR)
TCR alpha: B9 TCR alpha
TCR beta: B1 TCR beta
B14: modified TCR consisting of β11 and α4 (TCR)
TCR alpha: DVYITDKTVLDMRSMDFKSNSAVAWSNKSDFACANAFNNSIIPEDTFFPSPESSCDVKLVEKSFETDTNLNFQNLSVIGFRILLLKVAGFNLLMTLRLWSS
TCR beta: B3 TCR beta
B15: modified TCR consisting of β11 and α5 (TCR)
TCR alpha: B5 TCR alpha
TCR beta: B3 TCR beta
B16: modified TCR consisting of β11 and α9 (TCR)
TCR alpha: B7 TCR alpha
TCR beta: B3 TCR beta
B17: modified TCR consisting of β11 and α6 (TCR)
TCR alpha: B8 TCR alpha
TCR beta: B3 TCR beta
B18: modified TCR consisting of β12 and α4 (TCR)
TCR alpha: B14 TCR alpha
TCR beta: B4 TCR beta
B19: modified TCR consisting of β11 and α7 (TCR)
TCR alpha: B6 TCR alpha
TCR beta: B3 TCR beta
B20: modified TCR consisting of β10 and α3 (TCR)
TCR alpha: NVSQSKDSDVYITDKTVLDMRSMDFKSNSAVAWSNKSDFACANAFNNSIIPEDTFFPSPESSCDVKLVEKSFETDTNLNFQNLSVIGFRILLLKVAGFNLLMTLRLWSS
TCR beta: B1 TCR beta
B21: modified TCR consisting of β10 and α6 (TCR)
TCR alpha: B8 TCR alpha
TCR beta: B1 TCR beta
B22: modified TCR consisting of β11 and α3 (TCR)
TCR alpha: B20 TCR alpha
TCR beta: B3 TCR beta
B23: modified TCR consisting of β10 and α5 (TCR)
TCR alpha: B5 TCR alpha
TCR beta: B1 TCR beta
B24: modified TCR consisting of β10 and α9 (TCR)
TCR alpha: B7 TCR alpha
TCR beta: B1 TCR beta
B25: modified TCR consisting of β10 and α7 (TCR)
TCR alpha: B6 TCR alpha
TCR beta: B1 TCR beta
B26: modified TCR consisting of β12 and α3 (TCR)
TCR alpha: B20 TCR alpha
TCR beta: B4 TCR beta
B27: modified TCR consisting of β10 and α4 (TCR)
TCR alpha: B14 TCR alpha
TCR beta: B1 TCR beta
B28: modified TCR ba10 (TCR)
TCR alpha: B1 TCR alpha
TCR beta: EDLKNVFPPEVAVFEPSEAEISHTQKATLVCLATGFYPDHVELSWWVNGKEVHSGVSTDPQPLKEQPALNDSRYCLSSRLRVSATFWQNPRNHFRCQVQFYGLSENDEWTQDRAKPVTQIVSAEAWGRADCGFTSESYQQGVLSATILYEILLGKATLYAVLVSALVLMAMVKRKDSRG

target: CD3 subunits (CD3E, CD3G, CD3D, CD3Z) (human, UniProt P07766 23-207; P09693 23-182; P04234 22-171; P20963 22-164); test: cell-based or functional assay
Sequence (P07766 23-207, chain 1 of 4): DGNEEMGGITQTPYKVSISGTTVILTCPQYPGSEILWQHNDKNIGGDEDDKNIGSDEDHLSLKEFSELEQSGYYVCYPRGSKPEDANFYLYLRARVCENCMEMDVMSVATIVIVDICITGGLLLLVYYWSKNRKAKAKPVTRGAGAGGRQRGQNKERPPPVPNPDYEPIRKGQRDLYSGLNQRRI
Sequence (P09693 23-182, chain 2 of 4): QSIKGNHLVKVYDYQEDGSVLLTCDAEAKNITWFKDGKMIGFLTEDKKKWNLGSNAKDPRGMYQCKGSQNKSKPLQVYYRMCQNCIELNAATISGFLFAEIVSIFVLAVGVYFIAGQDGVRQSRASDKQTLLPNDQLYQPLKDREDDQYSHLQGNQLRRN
Sequence (P04234 22-171, chain 3 of 4): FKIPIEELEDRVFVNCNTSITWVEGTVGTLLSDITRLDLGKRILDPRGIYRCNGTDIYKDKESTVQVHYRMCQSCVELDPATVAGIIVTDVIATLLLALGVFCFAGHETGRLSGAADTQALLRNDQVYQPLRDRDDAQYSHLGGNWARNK
Sequence (P20963 22-164, chain 4 of 4): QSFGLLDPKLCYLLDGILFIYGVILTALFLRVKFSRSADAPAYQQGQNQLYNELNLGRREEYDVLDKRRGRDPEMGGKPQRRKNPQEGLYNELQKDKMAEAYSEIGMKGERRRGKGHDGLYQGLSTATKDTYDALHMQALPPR

Binder	CD3-recruiting activity (CD3-positive proportion, N=3), CD3-stably expressing 293T cells
B1	≥ 20%
B2	≥ 20%
B3	≥ 20%
B4	≥ 20%
B5	≥ 20%
B6	≥ 20%
B7	≥ 20%
B8	≥ 20%
B9	≥ 20%
B10	≥ 20%
B11	≥ 20%
B12	≥ 20%
B13	≥ 20%
B14	≥ 20%
B15	≥ 20%
B16	≥ 20%
B17	≥ 20%
B18	≥ 20%
B19	≥ 20%
B20	≥ 20%
B21	≥ 20%
B22	≥ 20%
B23	≥ 20%
B24	≥ 20%
B25	≥ 20%
B26	≥ 20%
B27	≥ 20%

target: CD3E (human, UniProt P07766 23-207); test: cell-based or functional assay
Sequence (P07766 23-207): as the sequence (P07766 23-207, chain 1 of 4) above

Binder	CD3E-positive proportion [%] (Avg, n = 2), CD3-stably expressing 293T cells
B28	86.5%
